No end group written: not given here.
Target: T1, recombinant endotheliase 1 (human, UniProt Q9UL52 192-423, limits assumed)
T1 construct: also called ET1; rET1
T1 sequence: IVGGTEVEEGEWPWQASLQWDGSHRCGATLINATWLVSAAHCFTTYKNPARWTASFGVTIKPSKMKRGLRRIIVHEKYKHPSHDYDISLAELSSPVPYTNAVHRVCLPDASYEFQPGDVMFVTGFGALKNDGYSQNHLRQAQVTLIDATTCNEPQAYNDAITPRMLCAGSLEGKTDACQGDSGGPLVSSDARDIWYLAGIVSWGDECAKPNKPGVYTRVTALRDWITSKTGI
Assay: inhibition of ET1 activity

AGKWHCKGYAPDCQMWGT (not fully specified (bridges); cysteine pairing not given here, synthetic peptide) [DX-1107]
Ki: 500 nM
